Source: patent EP1242600B1 (ZymoGenetics, Inc., dated 2001)
“And” between values parts separate entries of the source, which are not always exact repeats. Identical values can stand only once.

Molecular target: T1, CRF2-4/zcytor11 heterodimeric receptor on BaF3/CRF2-4/zcytor11 cells (human, UniProt Q08334 20-325, limits assumed)
T1 sequence 1: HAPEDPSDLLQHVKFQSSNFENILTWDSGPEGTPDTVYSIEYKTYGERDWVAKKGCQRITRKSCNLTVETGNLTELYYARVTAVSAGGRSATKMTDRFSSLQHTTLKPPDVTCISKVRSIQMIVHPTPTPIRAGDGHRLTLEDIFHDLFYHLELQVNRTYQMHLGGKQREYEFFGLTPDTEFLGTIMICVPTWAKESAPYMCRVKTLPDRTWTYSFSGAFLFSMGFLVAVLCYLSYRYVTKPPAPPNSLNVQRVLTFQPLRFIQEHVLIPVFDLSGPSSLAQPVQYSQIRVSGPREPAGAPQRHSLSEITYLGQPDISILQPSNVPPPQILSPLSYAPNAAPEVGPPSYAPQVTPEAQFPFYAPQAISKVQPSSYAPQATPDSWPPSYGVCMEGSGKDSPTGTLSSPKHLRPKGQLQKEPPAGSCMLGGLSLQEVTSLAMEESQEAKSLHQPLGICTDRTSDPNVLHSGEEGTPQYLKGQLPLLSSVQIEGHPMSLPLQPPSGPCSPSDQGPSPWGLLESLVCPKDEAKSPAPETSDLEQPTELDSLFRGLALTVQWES
T1 sequence 2: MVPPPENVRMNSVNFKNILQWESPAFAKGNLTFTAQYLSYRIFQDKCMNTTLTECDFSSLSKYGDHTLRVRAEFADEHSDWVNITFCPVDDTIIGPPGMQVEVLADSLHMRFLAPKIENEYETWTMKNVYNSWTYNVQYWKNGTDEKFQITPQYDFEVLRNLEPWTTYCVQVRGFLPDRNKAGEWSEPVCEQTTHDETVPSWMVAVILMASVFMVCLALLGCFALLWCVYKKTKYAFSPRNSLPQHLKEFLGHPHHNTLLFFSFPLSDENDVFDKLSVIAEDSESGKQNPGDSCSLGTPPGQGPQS
Experiment: cell-based or functional assay

B1: ZCYTO18-CEE polypeptide purified from BHK 570 cells (ligand)
chain: APISSHCRLDKSNFQQPYITNRTFMLAKEASLADNNTDVRLIGEKLFHGVSMSERCYLMKQVLNFTLEEVLFPQSDRFQPYMQEVVPFLARLSNRLSTCHIEGDDLHIQRNVQKLKDTVKKLGESGEIKAIGELDLLFMSLRNACIEYMPME
  proliferation of BaF3/CRF2-4/zcytor11 cells (Alamar Blue): ~15 fold over background and 2 fold induction
